Measurements as given in the NTF2 design screens of Basanta et al. (2020).

Assay: protease stability score; higher = more stable; yeast display proteolysis, trypsin and chymotrypsin;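 note: relative to predicted unfolded state with 0 unfolded-like and 1 meaning tenfold more protease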

Row | Sequence | protease stability score
1 | DRIEELSEEALHILKEVVRTGDERLIEENMDPNTRLEIGDKEFHGRHYAERFARDLGIKHMTFHHYETIDGRVHIHGTLHFNGRTHHTQIVLLKVNGQWRIERIHID | 0.669
2 | DRLEELLRHVSSLFLHSVETGDFDILQKLADPHVRMEVDGKELHGREHMVQRILDEYHKFGFTQIDSRLEDVRVYGDKVEVDLEHHFDGKTYKYEIILRKVNGRWTLESVIVR | 1.22
3 | DRLEELVERIAEIFLESYLTGDWKHLFDYFDPHAKLNIDGQESVGRESIQLMLEIHFKRVDHIQHFHRDDHRIQGNKFVFIGTLEGHVNGRTTRSRVKVEVTAVDGRIEELHIHIE | 1.23
4 | DRLHEMAREFSEEWSRAVKTGDEQLYSKLVDPNARFSIGEFDFHGRDEVSRIMKHWRIEDVHLSSVSVQGEKVEIRGHLHGDFDGRRQDVEVIIIVLKVNGRWFLRDLEFR | 1.31
5 | DRQKEILRELMEMFLTIFETGDEERFWELADPHVRHVIDIGDKEIRRVGREEMLKVWEHLYREMRIHRITLKDVRLVNGVFHAHVKVDGEYNGQRRETEMDIELNVVNGRVKSLIIHIQ | 1.89
6 | DRREEHAVNVFEIMFVLLLTGDETLFDKLFDPHVLFIIGDKEYHGRERFSKEMLRWIEEWRIQEFKIKDVRVVGDKAEIDGRIRGRYGDKETEIELHLIVMKVDGRWLVHSIELV | 1.09
7 | DRREEMEEIADELRRELIKTGDEHSTHRLADPHAKLHIGDKEYHGMEFMIRFFKILGVDHLRLQDIRVIDGQVHIHITSRVGDKRVHVEIISDKYNGRWRLREVIITID | 0.711
8 | DRRQEELRRMAEIWIHNELTGNEDEFRKLADPNVRFHLHVNGRVLSSHGMETLVKLFRELLEEWRIKEIHIHDMHIQGDKVHLEGRRRGTIGDKEDIYEVEIHVVIVNGKMKEITVIIK | 1.51
9 | DSDEEATKDFLEILIKLEMTGNEEEMRKMLDPNVRLIIDGVNLHGREALNVYLERFKNIQVEEIRIRHIEFQGEKVKIDYEWTVRINGRHHHQRTTIILIKYDGRWIIHMIHWH | 2.55
10 | DSDHHRAYEYAEFFIEWHETGNEDVLTELLDPHVRLIVDGQHYHGRDLIVRFLVQWRIHRFHIHDVKSIGEYIRVDTHVDMEFDGKRIITQVELVIIKINGRWRYKHISIP | 1.22
11 | DSDQSKREMDKFLEMVSTGDPDEVNRLLDKDAHAHVGDQTYHGREEISHMWKELREKIDHLEVHDYKVNGNKLEVDMHATINGQNVVFTVVAVLRNGHFESVEVQYRSEEEEEKVKR | 0.776
12 | DSEEEDARRALQEFLEHLATGNWEVLTKMMDPNTRLDVDGRDIHGWDEVKHHLKEMRVTIDHLHIERYIVQGEKVDIRGRVHILKEFDGKVLRHDRHVRIIFEKVDGRWIIHKIEHR | 1.99
13 | DSEEKDQRKASELTMRLLKTGNEDLMSHFFDPDTKVTIGDKEYHGREVLSHLLWEEKERIKGMRFEIKDLHVRYIGDKIRVESHVVLEINGVTLDTELIFHAEKVDGRWLSRSFEVRIT | -0.023
14 | DSEEKWDREFVKDFVHNEKTGDEERLKELMDPHAILLIDINGREIRHHGREAMTEEVDRFLKHAGVDHMDIHDVKIQGDKVRVDIRIEIGDKRQKSHIIIEKINGQWRVTQIHIHVE | 0.989
15 | DSEHEEAKTFVKELDKSIETGDEEKLKELLDPHTLIIVGDKFRIGWEWMANKISQIRIHMETRIRDVEHQGDKMIVHTDVRIDINVDGKKIHEQRDIHLIIRKVNGQWILKEIEIR | 1.36
16 | DSHEETNKFFFELTTHALETGDFDFLKKLADPHVRLNIDGRDTIGMDFLLRLWRELGFKHQHLKDMKIYGNWTYLDMHLHFNGREHDIHLNFKIFNGQMESIDVHIR | 1.32
17 | DSHRELLERFARLMLHLWLTGDEDELHKYMDPHVRYHQGEFHIHGREEVTRWASELHKKLGINHEDQERVNIYDGKNHVDTRLDINGRHLRVELRIDVWNGRIREVQVHHR | 1.41
18 | DSHYHLFIYNMELLSTLLKTGDEHRNTEMFDPHVRIVVGEKEIHGREDVEKYLREIRIEEMRFHLRRLDVQGEKVTVEGELRIRFWIGDKEHEHNEDARIHLLKINGRWRLKEIESK | 2.43
19 | DSLEDIFKLAVDDLEFLYETGDEEMTSQMADPNVRVIFNGRDFWGWHYLLKIFSELIKKLGIDHIRLEIDHVHLQGDKVDIHGTLRNHIGDFIFVHHTTHFLVKIDGRWFIRSVKIR | 2.15
20 | DSLEEMTRKWFEKWVRDLKTGDEQSMTELADPHVRFLQGDKEYHGRELFTELESEKRKRFDHLELRLHSMEVQGDKLHIDSRMILKIGDFVLKLNVYLHVLKIDGRWLLEEIRIK | 0.704
21 | DSLEKHTEDSLRFFLHILRTGDEEELSDLLDPRTRYEFNGKEFHGREQVVEVLIRLAEHIRIEELHVTHVEVYGDKVNSETLLIVDVDGQKRILHTRVLATKVNGKWLFQRIRIV | 2.17
22 | DSLHEKVEIMAHLLVEIIRTGNEEDWRRYVDPNVRIRIGDKDLHGREEAFRVVREIRIIVHDIKIRSLDVQGDKVESDVEVDVEFRIGDKVNRIHTRFRLIWTKVDGRWINESMSIE | 2.61
23 | DSSENFMRHMMEEVWNALVTGDEKLFQRLADPDVRLHFNGVHTHGRENVLTFLRSLDEHLGVKHRSIHDFTIVGDYSHIDTTMEVGDKHWRIHLFLVIIDGRVHHIEIRIE | 2.23
24 | DSVEELAKRSVELLLRLLKTGDEEEISRLADPDTRLVIGEFEFHGMEKVEHSWRKMGFTIHEWRIHDVEVQGDKLIVHVHQNIEFNGVHEEFRSIIIARKINGRWRLKSLHWK | 1.67
25 | DTDAVRRALKFIDAMQDGDPDKARELMDPNARVNIGDKEYHGMTSFVKDLKRLRDEIRVQYNIRDYNAQGEKIHVTVDVVFEHNGRPVDERFNVTIDIQGDKIKQVTAHRTK | 1.5

Row | Sequence | protease stability score
26 | DTDKKHIQNVLRLLSTLEHTGDWEALKELADPNVRVVVNGQEIHGRDMFNKHFEELRINDSRMILRDFEVQGDKIHVEGEVEFDGIIDGREKRFVRHVRIINVKIDGRWVIREIQVR | 1.62
27 | DTDQTLFEDYAKMYMKDLLTGDFESIEKYADPRVQVHIGDKEIHGREIFVKYLWEHNEQVDHRQFHFKDVDHFDGKIHVHMEMHIDVNGKLINEKLHVIIWKFNGRWIMKSVHHR | 0.78
28 | DTDTHTVKEFIRALVESSRTGDEDLLRDFADPRMRIDIDGRIFHGRENALRWLSELRIEEVRIDHVTIVDGRLHVDVTYRGDINGQHTETRVILIILKVNGRWRMHYIEVR | 1.55
29 | DTEDHLSHRVLEYHQEVEKTGDWHELFNNIDPHARMSVGDKRYHGMESMSKWLSRIKNAKIDEEHIEIQGNKIILHGTINVDGVRIESIILSLKVDGRWLRKEVRFH | 0.19
30 | DTEDKLSEEALKDLLEKVKTGDPQVMEELADPEVKVDIGDKNLHGREEYTRWVEKLWKRVPNLKLEIDHVEFQGDYVLIEGRIIYNGRKHKIKIHSLKIDGRWLIETVRIR | 1.39
31 | DTEEEILKQYLELLRRQHATGDEDSIKHLVDPNVRNDVNGVDIHGRDRMREWIERHRHNLGIDHIEIRITDLHIIDGRIHLDVRVFYRVDGRTIHMEIYVVLVKVDGRWSVKSRHLH | 0.911
32 | DTEEKELQKSLKELVTAVQTGDFKLLKELFDPHVRIDIGDKNVIGREEFSRFQKEEMEKWGVSRFTFDMEIHRYEIQGNKAYVDALNREEINGQEIHFNVDLFIHKINGKWLITEIRNK | 0.494
33 | DTEEKLARDIVRIVSELIFTGNEQDLKRLHDPRVRLEVLFENHYLEFHGWEDYLEWLEEWRNHMRMKEIHVHTLQVYGNKARDEVHTVVHIGDKRIETRMHFIVVVINGRIKYISVHIE | 1.9
34 | DTEERLLHEMLRYLLEWFITGDEELFARLADPNTRTNVNGRHFHGREEMARLLEKWWRDFGVKHVHIEHTRVQGDYLHIDTRLHIGDKDLHVHFKLLVIDGRIRSLEIIIR | 0.689
35 | DTEKYLYDFALRLHIHAHETGNFDQLIKNLDPHYRIDINGQIFHGREWVEREYKRAGIDKFELQHFEVKHEHVQGDFLIMDGKLEGNFNGVRINTRVEIYHEKFDGQWKIREVHHR | 0.185
36 | DTEQKHVLHLLDEVLHNILTGDWDRIDELMDPNVRVIIGEWDHHGRSYFRELHHLLMLKLGVDHRHIKIQDKDAQGEYAVAHTHLELRIGDKRETYQTRLIVSVVNGKIEEIRIHIG | 0.877
37 | DTIERFVRHSFNLFVKQLETGDEHTLEKMADPHVRLEYGDKEYHGREEFKRQMHEIRFKRLELKRIEIQGEWAIMHGEDDGHFNGVDMKLESTEIAVKVNGRWYLKSFILK | 1.41
38 | DTSFTILEEVIKLFIEASETGDERVIQHLFDPNVRFRVDGKDFHGMDWLLEHFSHLRLHDIQITHVHIYNGRVEVTGHVRGNFDGQEKVHNTHILLRKIDGKWRIEHISMK | 1.41
39 | DTTEKHQKDMARAQIHSLETGDFKELMELLDPNVRFEFEVGDKRIERHGRELMVHFILKEYEEIRIRIDSWRVVNGVVKIELRLHVGDKESRIEIYLLIINGQAKSVHFDVR | 1.09
40 | DTVTEMDRHIFEHLLHLWKTGDWKRMTELFDPHARSVFNGRELHGRKSMQEAIEIIVRRADHIELHIRSLDVVDGQIDLDGELILIVGDKKIVHETHIHIHVYNGQVTELSFQIV | 0.585
41 | DVEEEYRHVMEEVHKHAMKTGDEQDILHLMDPNARFEVDGKIYIGREWLRRFVDILGVSRIHLHDLKIKDYRIIGNKIEVDGNIDGIVGNKRHEIDSHVISEKIDGRWIIKREKHR | 0.324
42 | DVEQEISKTLVHLWVFALLTGDEHLIRKLADPHVRLDIDGVTIVGMDLVAKRITELRIERFTIEDVKFEIQGDKLISIMDTKVDGRIGDKRIETRVIILLIFEKIDGRWQLSTSSEEKR | 1.16
43 | DYHEEIMRKVHEFFLAMVTTGDEEMIEKLFDPHVRIDINGRDHHGRDVAVKIWEELWREIRFKHVHLHDMKSFNGVLHLHVREKVDVNGRDLIIETHFVIRKFDGQWHLHSLKIN | 1.38
44 | EDDERELKLMLELLLHSQHTGDFKEAERLADPNARFEFNGREFHGREQFHSFIWKLGVDHSEVKRVRLQGEFLTLHIKHNVNGKEIDMIWYNVKVNGKWLIHHLEVR | 1.21
45 | EDEEQHTEELAHIFTEDYFTGDESSLERYLDPHVRLRIEYGDWEFSVHGRERAVDKIHWTMKQMGVKHVYLRHIRVQGDKVELNLELRVGDKVREQRIEIKVVNGRIKLVNIVIH | 2.15
46 | EDEERETEEAIRLFIKNEITGDWKRLLHYLDPNVRVRIGDKEIHGMERWKDEFKQEIDRVKGLRYELDDERRHLVDGKIEIILDFTIHVGEKRHRFQLVLILVKVNGRWIMHSIHVNYL | 1.54
47 | EDEKEFIERFARILLHARFTGDWKTLLELMDPNARITIEIGDKILEFHGMEQWIRENDKTEKKIKNITIHIEDMRIVNGVLEVDIHVHIGDKKYDFRIIVVVINGKVRQLEIKVE | 2.08
48 | EEAEQESKNFSEVVHRSLETGDEDNLMNNADPHVRSRIHVGDKRITSHGREVMELILERFKHARVVPTDIEVINGVAIIHMTMEYGDKELRIHLIFFKIDGKWILTHIIIRVD | 0.056
49 | EEDDEILEKAIRLHEHMLRTGDPREFWELADPHYKLNIGDKHIHGRETLLRHTLHKIEEYGFKHSRFVPKDWELQGDKIHLRGELILHFNGREHRYDYHIEAIKVNGQWVLHRIDIQ | 1.23
50 | EEDDKFSELAFNMLVESFKTGDEQHWRELADPRVKYQIDGRDLIGWTAFRRFLNEFGIDHMHIKLHDHRDYNGQVELDETLEIRYGDKTEHIKVTTIVHKINGQWIVKSFSVH | 0.682
